Data taken from patent US20170183413A1 (CELLECTIS, published 2017).

T1: CD123-Fc protein (fusion of the extracellular domain of the human CD123 protein with a murine IgG1 Fc … (human; mouse, UniProt P26951 19-305)
T1 construct: extracellular domain; also called fusion protein; not shown: murine IgG1 Fc fragment
T1 sequence (looked up): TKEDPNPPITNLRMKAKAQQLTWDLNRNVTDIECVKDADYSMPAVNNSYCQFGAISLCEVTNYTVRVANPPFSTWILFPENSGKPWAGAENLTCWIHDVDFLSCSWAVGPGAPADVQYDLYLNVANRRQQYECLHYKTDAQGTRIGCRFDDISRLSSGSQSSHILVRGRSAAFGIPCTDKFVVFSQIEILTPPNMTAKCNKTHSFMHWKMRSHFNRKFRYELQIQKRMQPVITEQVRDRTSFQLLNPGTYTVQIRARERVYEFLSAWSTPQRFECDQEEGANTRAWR

B1: 32716-v3 CAR (32716-3, anti-CD123 chimeric antigen receptor, structure V-3: 32716 scFv, CD8alpha hinge, CD8alpha transmembrane domain, 41BB intracellular … (other)
chain: QIQLVQSGPELKKPGETVKISCKASGYIFTNYGMNWVKQAPGKSFKWMGWINTYTGESTYSADFKGRFAFSLETSASTAYLHINDLKNEDTATYFCARSGGYDPMDYWGQGTSVTVSSGGGGSGGGGSGGGGSDIVLTQSPASLAVSLGQRATISCRASESVDNYGNTFMHWYQQKPGQPPKLLIYRASNLESGIPARFSGSGSRTDFTLTINPVEADDVATYYCQQSNEDPPTFGAGTKLELKTTTPAPRPPTPAPTIASQPLSLRPEACRPAAGGAVHTRGLDFACDIYIWAPLAGTCGVLLLSLVITLYCKRGRKKLLYIFKQPFMRPVQTTQEEDGCSCRFPEEEEGGCELRVKFSRSADAPAYQQGQNQLYNELNLGRREEYDVLDKRRGRDPEMGGKPRRKNPQEGLYNELQKDKMAEAYSEIGMKGERRRGKGHDGLYQGLSTATKDTYDALHMQALPPR
notes: Chimeric antigen receptor on the surface of human T cells; 38; In the lentiviral vector the CAR is coupled to BFP through a 2A peptide; also called CAR 32716V3
B2: Klon43-v3 CAR (Klo43-3, anti-CD123 chimeric antigen receptor, structure V-3: Klon43 scFv, CD8alpha hinge, CD8alpha transmembrane domain, 41BB intracellular … (other)
chain: EVKLVESGGGLVQPGGSLSLSCAASGFTFTDYYMSWVRQPPGKALEWLALIRSKADGYTTEYSASVKGRFTLSRDDSQSILYLQMNALRPEDSATYYCARDAAYYSYYSPEGAMDYWGQGTSVTVSSGGGGSGGGGSGGGGSMADYKDIVMTQSHKFMSTSVGDRVNITCKASQNVDSAVAWYQQKPGQSPKALIYSASYRYSGVPDRFTGRGSGTDFTLTISSVQAEDLAVYYCQQYYSTPWTFGGGTKLEIKRTTTPAPRPPTPAPTIASQPLSLRPEACRPAAGGAVHTRGLDFACDIYIWAPLAGTCGVLLLSLVITLYCKRGRKKLLYIFKQPFMRPVQTTQEEDGCSCRFPEEEEGGCELRVKFSRSADAPAYQQGQNQLYNELNLGRREEYDVLDKRRGRDPEMGGKPRRKNPQEGLYNELQKDKMAEAYSEIGMKGERRRGKGHDGLYQGLSTATKDTYDALHMQALPPR
notes: Chimeric antigen receptor on the surface of human T cells (mRNA transfection or lentiviral transduction); 44; In the lentiviral vector the CAR is coupled to BFP through a 2A peptide; also called CAR Klon 43 V3; Klon43 CAR

Target: T1, CD123-Fc protein (fusion of the …)
Assay: flow cytometry on transduced T-cells, CD123-Fc fusion protein detected with PE-conjugated anti-mouse Fc
Protocol: Transduction of T-cells with recombinant lentiviral vectors expression the CAR was carried out three days after T-cell purification/activation. Lentiviral vectors were produced by Vectalys SA (Toulouse, France) by transfection of genomic and helper plasmids in HEK-293 cells. Transductions were carried out at a multiplicity of infection of 5, using 10⁶ cells per transduction. CAR detection at the surface of T-cells was done using a recombinant protein consisting on the fusion of the extracellular domain of the human CD123 protein together with a murine IgG1 Fc fragment (produced by LakePharma). Binding of this protein to the CAR molecule was detected with a PE-conjugated secondary antibody (Jackson Immunoresearch) targeting the mouse Fc portion of the protein, and analyzed by flow cytometry. […]
CAR detection was done using a fusion protein in which the extracellular domain of the human CD123 protein was fused to a mouse IgG1 derived Fc fragment. Binding of the CAR at the cell surface with the CD123 portion of the fusion protein was detected with anti-Fc PE-conjugated antibody and analyzed by flow cytometry. FIG. 9 represents the % of CAR+ or of Blue fluorescent protein (BFP+) cells (measured by FACS analysis) at Day 8 or 10 post transduction for two different donors.

Binder	binding result
B1	binds
B2	binds
